# Values quoted from earlier work as cited in article PMC4517114.
# Like-named read-outs stand apart in the source and are kept apart here.
# How the values were obtained:
# [1] = biological target: MAGI-1 PDZ (Homo sapiens) (UniProt Q96QZ7)
# [2] = biological target: MAGI-1 PDZ (Homo sapiens) (UniProt Q96QZ7); remark: listed apart in the source
# Sequence of UniProt Q96QZ7 (Q96QZ7 472-554): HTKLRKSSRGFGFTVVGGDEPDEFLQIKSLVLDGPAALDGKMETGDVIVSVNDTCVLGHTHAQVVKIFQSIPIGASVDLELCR
substance,measurement,setting,value
HPV16 E6 (from UniProt P03126),Kd,[1],3000 nM
HPV18 E6 (from UniProt P06463),Kd,[2],1500 nM
